Reference: patent US20220381787A1, “NOVEL LOX-1 ANTIBODY COMPOSITIONS, LOX1 NEUTRALIZATION ASSAY AND METHODS OF TREATMENT USING SAME” (The Wistar Institute of Anatomy and Biology, priority 2019, published 2022)

B1: anti-Lox1 (IgG1) (6A10): recombinant antibody, clone 6A10 sequence in IgG1 framework, expressed in Expi293F cells (antibody, V domains shown)
VH: EVQLQQSGPELVKPGASVKISCKASGYSFTGYYMHWVKQSHVKSLEWIGRINPYNGATSYNQNFKDKASLTVDKSSSTAYMELHSLTSEDSAVYYCAPDVAYWGQGTLVTVSA
VL: DIKMTQSPSSMYASLGERVTITCKASQDINSYLSWFQQKPGKSPKTLIYRANRLVDGVPSRFSGSGSGQDYSLTISSLEYEDMGIYYCLQYDEFPPWTFGGGTKLEIK
B2: 3D8: mouse monoclonal anti-human LOX-1 antibody, VH SEQ ID NO: 25, VL SEQ ID NO: 27 (antibody, V domains shown)
VH: MEWSWIFLFLLSGTAGVHSEVQLQQSGPELVKPGASVKMSCKASGYTFTSYVMHWVKQKPGQGLEWIGYINPYNDGTKYNEKFKGKATLTSDKSSSTAYMELSSLTSEDSAVYYCARGVYDGYPDYWGQGTTLTVSS
VL: MVSTSQLLGLLLFWTSASRCDIVMTQSPATLSVTPGDRVSLSCRASQSISDYLHWYQQKSHESPRLLIKYASQSISGIPSRFSGSGSGSDFTLSINSVEPEDVGVYYCQNGHSFPYTFGGGTKLEIK
modifications: Amino acid sequence of variable region of the 3D8 heavy chain.; (1)..(19) Signal; (20)..(49) FR1; (50)..(54) C DR1; (55)..(68) FR2; (69)..(85) CDR2; (86)..(117) FR3; (118)..(126) CDR3; (127)..(137) FR4; Amino acid sequence of variable region of the 3D8 light chain.; (1)..(20) signal; (21)..(43) FR1; (44)..(54) CDR1; (55)..(69) FR2; (70)..(76) CDR2; (77)..(108) FR3; (109)..(117) CDR3; (118)..(127) FR4
B3: 12D9: mouse monoclonal anti-human LOX-1 antibody, VH SEQ ID NO: 11, VL SEQ ID NO: 13 (antibody, V domains shown)
VH: MAWVWTLLFLMAAAQSAQAQIQLVQSGPELKKPGETVKISCKASGYTFTNYGMNWVKQTPGKGLKWMGWINTYTGEPTYTDDFKGRFAFSLETSASTASLQIINLKNEDTATYFCARGGDFYAMDYWGQGTSVTVSS
VL: MESQTLVFISILLWLYGADGNIVMTQSPKSMSMSVGERVTLSCKASENVGTYVSWYQQKPEQSPKLVIFGASNRNTGVPDRFTGSGFATDFTLTISSVQAEDLGDYHCGQSSNYPYTFGGGTKLEIK
modifications: Amino acid sequence of variable region of the 12D9 heavy chain.; (1)..(19) signal; (20)..(49) FR1; (50)..(54) CDR1; (55)..(68) FR2; (86)..(117) FR3; (118)..(126) CDR3; (127)..(137) FR4; Amino acid sequence of variable region of the 12D9 light chain.; (1)..(20) signal; (21)..(43) FR1; (44)..(54) CDR1; (55)..(69) FR2; (70)..(76) CDR2; (77)..(108) FR3; (109)..(117) CDR3; (118)..(127) FR4
B4: 6A10: mouse monoclonal anti-human LOX-1 antibody, VH SEQ ID NO: 3, VL SEQ ID NO: 5 (antibody, V domains shown)
VH: MGWSWIFLFLLSGTAGVLSEVQLQQSGPELVKPGASVKISCKASGYSFTGYYMHWVKQSHVKSLEWIGRINPYNGATSYNQNFKDKASLTVDKSSSTAYMELHSLTSEDSAVYYCAPDVAYWGQGTLVTVSA
VL: MRTPAQFLGILLLWFPGIKCDIKMTQSPSSMYASLGERVTITCKASQDINSYLSWFQQKPGKSPKTLIYRANRLVDGVPSRFSGSGSGQDYSLTISSLEYEDMGIYYCLQYDEFPPWTFGGGTKLEIK
modifications: Amino acid sequence of variable region of the 6A10 heavy chain.; SIGNAL (1)..(19) signal seqeunce; (20)..(49) FR1; (50)..(54) CDR1; (55)..(68) FR2; (69)..(85) CDR2; (86)..(117) FR3; (118)..(121) CDR3; (122)..(132) FR4; Amino acid sequence of variable region of the 6A10 light chain.; SIGNAL (1)..(20) signal seqeunce; (21)..(43) FR1; (44)..(54) CDR1; (55)..(69) FR2; (70)..(76) CDR2; (77)..(108) FR3; (109)..(118) CDR3; (119)..(128) FR4
B5: 12E4: mouse monoclonal anti-human LOX-1 antibody, VH SEQ ID NO: 15, VL SEQ ID NO: 17 (antibody, V domains shown)
VH: MGWSWIFLFLLSGTAGVHSEVQLQQSGPELVKPGASMKISCKASGYSFTGYTMNWVKQSHGKNLEWIGLINPYNGGTSYNQKFKGKATLTVDKSSSTAYMELLSLTSEDSAVYYCARGGFYAMDYWGQGTSVTVSS
VL: MSSAQFLGLLLLCFQGTRCDIQMTQTTSSLSASLGDRVTISCSASQGISNYLNWYQQKPDGTVKLLIYYTSSLHSGVPSRFSGSGSGTDYSLTISNLEPEDIATYYCQQYSKLPYTFGGGTKLEIK
modifications: Amino acid sequence of variable region of the 12E4 heavy chain.; (1)..(19) signal; (20)..(49) FR1; (50)..(54) CDR1; (55)..(68) FR2; (69)..(85) CDR2; (86)..(117) FR3; (118)..(125) CDR3; (126)..(136) FR4; Amino acid sequence of variable region of the 12E4 light chain.; (20)..(42) FR1; (43)..(53) CDR1; (54)..(68) FR2; (69)..(75) CDR2; (76)..(107) FR3; (108)..(116) CDR3; (117)..(126) FR4

Assays:
[1] = biological target: T1, LOX-1 antigen present on the cell surface of 293T cells (Homo sapiens, UniProt P78380); experiment: flow cytometry on hLOX-1 plasmid transfected 293T cells; format: cell-based; conditions: 1 μg/ml antibody
T1 construct: expressed in transfected cells; host or cells: 293T cells
Experimental: (§1) FIG. 8A is a flow cytometric histogram showing fluorescent intensity of cells incubated with recombinantly expressed anti-LOX-1 (IgG1) on the plasmid hLOX-1 transfected cells. Anti-hLOX-1/DNA transfected cells were stained with 1 μg/ml of anti-Lox1 (IgG1) (6A10) antibody plus FITC-labelled goat anti-human IgG secondary antibody. […] FIG. 8B show flow cytometry analysis of PBMCs from whole blood. Flow cytometry analysis of anti-hLOX-1 binding to CD11c^+, CD14^+, CD19^+ and CD3^+ cells in PBMCs from healthy donors. Flow cytometric analyses of anti-CD3, CD4, CD14, CD19 and anti-Lox1 monoclonal antibodies were used to detect their lineage specificity.

[2] = system: CD11c+, CD14+, CD19+ and CD3+ cells in PBMCs; experiment: flow cytometry of PBMCs from healthy donors; format: cell-based, human
Experimental: as §1

[3] = biological target: T2, recombinant full length hLOX1 protein (Homo sapiens, UniProt P78380); experiment: Western blot against native and denatured full-length recombinant hLOX1; format: binding; conditions: for binding to denatured LOX-1: denatured condition; for binding to native LOX-1: native condition
T2 construct: The hLOX1 immunogen was cloned into pET30a Escherichia coli expression vector and produced; His tag; made in house; host or cells: Escherichia coli (pET30a)
Text: FIGS. 5A and 5B provide a series of gels showing the binding and specificity of anti-LOX-1 mAbs to target protein analyzed by Western blot analysis. In each figure, the first row of gels was loaded with denatured LOX-1, while the second row of gels was loaded with native LOX-1, as indicated in Example. The clone numbers of the anti-LOX-1 antibodies are listed below the gels.
Immunological reactivity of hLox-1 antibodies was characterized by Western blot analysis against native and denatured full-length recombinant proteins. Protein samples were electrophoretically separated under native or denaturing conditions on SDS-PAGE, performed using Novex gels with reagents as followed: 4-10% mini-gel, 10× Native-PAGE running buffer and 2× Native-PAGE: sample buffer. Denatured protein was heated in a heat block for 10 minutes at 57° C. Two micrograms (2 μg) of recombinant full length hLOX1 protein or non-specific POWV-Env viral protein was loaded to each well along with a protein size marker as a ladder. Gels were run at 150 V for 1 hour in a running buffer. Protein was transferred to a nitrocellulose membrane using the iBlot 2 Gel Transfer Device (Life Technologies). Membranes were blocked in Odyssey blocking buffer (Licor) for 1 hour at room temperature. Indicated hybridomas were diluted 1:250 in 0.5× Odyssey blocking buffer with 0.1% Tween-20 (BioRad) and incubated with the membranes overnight at 4° C. Membranes were washed and then incubated with the appropriate secondary antibody (goat anti-mouse IRDye680RD) for hybridoma samples for 1 hour at room temperature. After washing with PBST 5 times, membranes were imaged on the Odyssey infrared imager.

[4] = biological target: T3, recombinant human LOX-1 protein (Homo sapiens, UniProt P78380); experiment: IgG avidity test, modified ELISA with 4M urea washes; format: binding; conditions: for avidity: 4M urea ELISA; for strength of binding to hLOX-1 recombinant protein: 4M urea washes, rank order 6A10=12D9>12E4>4D6
T3 construct: The hLOX1 immunogen was cloned into pET30a Escherichia coli expression vector and produced; His tag; made in house; host or cells: Escherichia coli (pET30a)
Experimental: Anti-hLOX-1 mAbs samples were tested for anti-hLOX-1-specific binding to recombinant antigen using a modified ELISA and avidity determined by 4M urea washes against recombinant human LOX-1 protein.
Anti-LOX-1 mAbs samples were tested for anti-LOX-1-specific binding to recombinant antigen using a modified ELISA and avidity determined by 4M urea washes against recombinant human LOX-1 protein. […] Overall out of 16 clones identified, 6 were stronger binders, and 4 were high binders in rank order of strength of binding 6A 10=12D9>12E4>4D6.
Microtiter plates previously coated with recombinant Lox-1 antigens were washed 3 times with PBS plus 0.05% tween 20 (PBST). Hybridomas 1B6, 2A10, 3D8, 3E6, 4D6, 5C2, 5F5, 6A10, 8E7, 9E12, 10H11, 11A6, 12D9, 11C5, 12A10, 12E4, 14A12, and 12G6 samples were diluted as indicated and added (100 μl/well). The avidity of antibodies against hLOX-1 protein was determined by a particle disruption ELISA using 4M Urea. The binding of hLOX1 protein and incubation with mAbs were performed followed by a 5-minute incubation with urea after washing five times with 0.05% PBST. Control (urea-untreated) wells were treated with PBS during the 5-minute incubation. The anti-human IgG conjugated with horseradish peroxidase (HRP) was added with the dilution of 1/5000 in PBS for 1 hour. Afterwards, the plate is washed 5 times, and 100 μl of 3,3′5,5′-Tetramethylbenzidine (TMB) Substrate (Sigma-Aldrich, USA) is added to each well for 10 minutes before the reaction being stopped with 2M H2SO4 solution. The plate is read at 450 nm by Biotek ELISA plate reader.

Row | Molecule | binding to non-transfected cells [1] | binding to hLOX-1 transfected cells ([1]; FITC-labelled goat anti-human IgG secondary) | binding to CD3+ cells in PBMCs [2] | binding to immune subset cells in PBMCs ([2]; CD11c+, CD14+, CD19+ cells) | binding to denatured LOX-1 [3] | binding to native LOX-1 [3] | avidity [4] | strength of binding to hLOX-1 recombinant protein [4]
1 | B1 | no binding above background to non-transfected cells | Specific binding to cells transfected with LOX-1 antigen | not to CD3^+ cells | binds to immune subset cells | – | – | – | –
2 | B2 | – | – | – | – | not denatured LOX-1 (or binding to denatured LOX-1 at a significantly lower level) | demonstrate binding to native LOX-1 | – | –
3 | B3 | – | – | – | – | not denatured LOX-1 (or binding to denatured LOX-1 at a significantly lower level) | demonstrate binding to native LOX-1 | strong avidity | high binders
4 | B4 | – | – | – | – | not denatured LOX-1 (or binding to denatured LOX-1 at a significantly lower level) | demonstrate binding to native LOX-1 | strong avidity | high binders
5 | B5 | – | – | – | – | not denatured LOX-1 (or binding to denatured LOX-1 at a significantly lower level) | demonstrate binding to native LOX-1 | – | high binders
